This is an account of results in US9873733B2, “Anti-staphylococcal antibodies” (priority 2012, dated 2018).

Substitutions are numbered along the chain they refer to.

Assay [1] relates to Staphylococcus aureus clinical isolate 703. The following applies: Jones et al., AAC 2008; cited from earlier work.
Assay [2] shares this test system. As to the kind of experiment: Killing of clinical isolate 703 by daptomycin. The format is cell-based. The settings on record: 11 μg/ml daptomycin, in the presence of the anti-lysozyme antibody. Here is the method:
(§1) Overnight cultures of S. aureus SA113 Δspa were diluted in fresh MHB medium and adjusted to OD600 0.25 (˜1.5×10^7 cells). Antibodies were adjusted to a concentration of 1 mg/ml and 10 μl were applied per well of a 96 well plate and diluted in 90 μl of the adjusted cell suspension (final antibody concentration: 100 μg/ml). Cells were grown in the presence of anti-lysozyme antibody (control) or with the anti-MprF antibodies. Duplicates were employed for each assay. After 3 hours of incubation under shaking conditions at 37° C., optical density was determined, adjusted to OD600 0.025 in 500 μl ice cold PBS buffer. 80 μl of the adjusted cell suspension were diluted with 20 μl of antimicrobial substances to final concentrations of 22.5 μg/ml nisin. After incubation for 2 hours under shaking conditions at 37° C., the cell suspensions were diluted 1:2000 and 100 μl of each duplicate was plated in triplicates on TSB medium containing agar plates to obtain a representative value of bacterial survival. Cells treated without antimicrobial substance were set at 100% and survival values were calculated with cells treated with antimicrobial substances. At least three independent assays were employed.
In this experiment killing of Staphylococcus aureus clinical isolate 703 (described in Jones et al., AAC 2008) by daptomycin in the presence of an MprF specific antibody was analyzed. […]

Assay [3] has as its system Staphylococcus aureus clinical isolate USA300 (MRSA). As to the kind of experiment: Growth inhibition of clinical isolate USA300 by nisin. It counts as cell-based. The following applies: nisin 4.5 μg/ml. Here is the method:
(§2) Therefore S. aureus (S. aureus SA113) cells grown to mid-log phase were used to inoculate fresh TSB medium. These cultures were mixed with anti-MprF (1 μM) antibody or control IgG respectively or with anti-MprF (1 μM) antibody or control IgG in combination with nisin (6 μg/ml). The growth of the S. aureus in presence of anti-MprF antibody was monitored in culture plates shaking at 37° C. by measuring OD600. […] (FIG. 7)
In this experiment growth inhibition of Staphylococcus aureus clinical isolate USA300 by nisin was tested in the presence of an MprF specific antibody.
The experiment was performed as described in Example 5. Instead of S. aureus SA113 the clinical isolate S. aureus USA300 was used. The concentration of nisin was 4.5 μg/ml instead of 6 μg/ml nisin.

A further assay relates to S. aureus SA113. Briefly: Growth inhibition assay with nisin. It counts as cell-based, Staphylococcus aureus. The settings on record: nisin 6 μg/ml. On the procedure:
as §2

For assay [4], the target named is cyclic peptide representing loop 4 of MprF (Staphylococcus aureus, UniProt Q2G2M2). The following applies: IgG in PBS; biotinylated cyclic peptide 5 μg/ml. On the procedure: (§3) The IgGs were tested for binding to the antigen, which was used in their selection. Also binding to other MprF-peptides was tested to check for selectivity.
(§4) For ELISAs with cyclic antigen, the biotinylated cyclic peptides (final conc. 5 μg/ml) were incubated with IgGs in PBS. Then the mix was transferred to a pre-blocked Neutravidin plate (Thermo Scientific), incubated and then the plate was washed with PBS containing 0.5% of TWEEN20. MprF-specific IgGs were detected using goat-anti-human IgG (Sigma).
(§5) In both cases washing was performed using PBST ([…] with 0.05% TWEEN20. Detection was performed using alkaline phosphatase coupled Goat anti-human IgG (Sigma Cat. # A-8542 and Attophos™ substrate Roche, Cat. #11681982001). Fluorescence was measured at an excitation of 440±25 nm and an emission of 550±35 nm. Full signal intensity is typically reached after 5-15 min at room temperature.

A further assay deals with S. aureus SA113 Δspa. As to the kind of experiment: Killing of S. aureus by nisin with MprF antibodies. The following applies: antibody 100 μg/ml, 22.5 μg/ml nisin, 2 hours; anti-lysozyme antibody as control. It counts as cell-based, Staphylococcus aureus. Here is the method:
In this experiment killing of Staphylococcus aureus was tested. Nisin was used as an exemplary cationic antimicrobial compound. Nisin was tested in combination with selected antibodies of the present invention. An anti-lysozyme antibody was used as a negative control.
as §1

Assay [5] has as its system MprF on S. aureus (Protein A deletion mutant, delta spa). As to the kind of experiment: Whole cell ELISA on S. aureus. The following applies: E. coli as negative control. It counts as binding, Staphylococcus aureus. On the procedure: (§6) The specificity of the purified antibodies was tested for binding to whole cell Staphylococcus aureus in an ELISA assay. Escherichia coli bacteria were used as a negative control.
(§7) For ELISA on S. aureus the Protein A deletion mutant (delta spa) or the mutant with an additional deletion in MprF (delta spa delta mprf) were grown to mid log phase, than washed in PBS and resuspended in saline to a final OD600 of 0.6. This bacterial culture was coated on Maxisorp plates (Nunc). Plates were blocked with 2% BSA/PBS and washed with TSB containing 0.5% TWEEN20.
(In general: An ELISA detects its analyte on a solid surface through an enzyme-linked reagent.)

For assay [6], the system named is S. aureus mutants lacking MprF expression (delta spa delta mprF). Briefly: Whole cell ELISA on S. aureus mutant lacking MprF. It counts as binding, Staphylococcus aureus. The following applies: compared with delta spa. Here is the method: as §6, §7
The target in assay [7] is cyclic peptide representing loop 5 of MprF (Staphylococcus aureus, UniProt Q2G2M2). The settings on record: IgG in PBS; biotinylated cyclic peptide 5 μg/ml. On the procedure: as §3, §4, §5
Assay [8] addresses cyclic peptide representing loop 6 of MprF (Staphylococcus aureus, UniProt Q2G2M2). The following applies: IgG in PBS; biotinylated cyclic peptide 5 μg/ml. On the procedure: as §3, §4, §5
Assay [9] addresses linear peptide representing loop 1 of MprF (Staphylococcus aureus, UniProt Q2G2M2). The settings on record: IgG at various concentrations; peptide 5 μg/ml. On the procedure: as §3
MprF-specific IgGs were detected using goat-anti-human IgG (Sigma).
as §5

linear peptide representing loop 1 of MprF, sequence (Q2G2M2 31-50, looked up, natural form): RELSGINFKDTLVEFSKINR

Regarding `CCCCCCCCCC(=O)N[C@@H](Cc1c[nH]c2ccccc12)C(=O)N[C@H](CC(N)=O)C(=O)N[C@@H](CC(=O)O)C(=O)N[C@@H]1C(=O)NCC(=O)N[C@@H](CCCN)C(=O)N[C@@H](CC(=O)O)C(=O)N[C@H](C)C(=O)N[C@@H](CC(=O)O)C(=O)NCC(=O)N[C@H](CO)C(=O)N[C@@H]([C@H](C)CC(=O)O)C(=O)N[C@@H](CC(=O)c2ccccc2N)C(=O)O[C@@H]1C` [daptomycin, reference compound], in [1], the “Responsiveness of S. aureus clinical isolate 703 to daptomycin” value is on record as “non-responsive to daptomycin”. Moreover, the “Effect of daptomycin on S. aureus 703” value in assay [2] is “no effect on S. aureus 703”.

As to nisin, in assay [3], the “Growth of S. aureus USA300, nisin alone” value is given as “an effect of nisin alone in terms of reducing bacterial growths was observed”. Also, the “Growth of S. aureus (OD600), nisin alone” value with S. aureus SA113 is listed as “an effect of nisin alone in terms of reducing growths of bacteria was observable”.

B1: M-C4.2: human IgG1 against cyclic peptide, loop 4 of MprF; VH3-23 kappa 1; VL Seq. ID: 54, VH Seq. ID: 55 (antibody, V domains shown)
VH: EVQLLESGGGLVQPGGSLRLSCAASGFTFSSYAMHWVRQAPGKGLEWVSVISSVGSSTYYADSVKGRFTISRDNSKNTLYLQMNSLRAEDTAVYYCARGGLDVWGQGTLVTVSS
VL: DIQMTQSPSSLSASVGDRVTITCRASQDISKYLNWYQQKPGKAPKLLIYAASRLQSGVPSRFSGSGSGTDFTLTISSLQPEDFATYYCQQGDSTPFTFGQGTKVEIKRT
modifications: MC42 VH; MC42 VL
notes: human IgG1 against cyclic peptide, loop 4 of MprF; VH3-23 kappa 1; ID: 55
With B1, the “Specific binding to cyclic loop 4 peptide (ELISA)” value in assay [4] is “specifically bind to cyclic loop 4 peptide in a dose-dependent manner”. For the same molecule, the “Sensitivity of S. aureus towards nisin (killing, bacterial survival)” value (“Sensitivity of S. aureus towards nisin” below) in the assay with S. aureus SA113 Δspa is “most pronounced effects”.

B2: M-C5.1: human IgG1 against cyclic peptide, loop 5 of MprF; VH1A kappa 1; VL Seq. ID: 74, VH Seq. ID: 75 (antibody, V domains shown)
VH: QVQLVQSGAEVKKPGSSVKVSCKASGGTFSSYAISWVRQAPGQGLEWMGGIVPIFGTANYAQKFQGRVTITADESTSTAYMELSSLRSEDTAVYYCARVRYGYWDVWGQGTLVTVSS
VL: B1 VL with S30A, K31N, Y32W, R53S, G91Y, D92I, T94L, F96I
modifications: MC51 VH; MC51 VL
notes: human IgG1 against cyclic peptide, loop 5 of MprF; VH1A kappa 1; ID: 75
In the case of B2, the “Binding to whole cell S. aureus (ELISA)” value in [5] is on record as “detect MprF on S. aureus”. The “Binding to S. aureus mutants lacking MprF expression (ELISA)” value in assay [6] was “significantly weaker binding”. In addition, the “Specific binding to cyclic loop 5 peptide (ELISA)” value in [7] was “specifically bind to cyclic loop 5 peptide in a dose-dependent manner”. Moreover, the “Sensitivity of S. aureus towards nisin” value in the assay on S. aureus SA113 Δspa is recorded as “most pronounced effects”.

B3: M-C6.2: human IgG1 against cyclic peptide, loop 6 of MprF; VH1A kappa 1; VL Seq. ID: 104, VH Seq. ID: 105 (antibody, V domains shown)
VH: QVQLVQSGAEVKKPGSSVKVSCKASGGTFSSYAISWVRQAPGQGLEWMGGIIPILGIANYAQKFQGRVTITADESTSTAYMELSSLRSEDTAVYYCARSLPYRSDLYGFSRWSYHRVGMDVWGQGTLVTVSS
VL: B1 VL with K31N, Y32T, R53T, G91V, D92G, T94F, F96Y
modifications: MC62 VH; MC62 VL
notes: human IgG1 against cyclic peptide, loop 6 of MprF; VH1A kappa 1; ID: 105
Consider B3, for which the “Specific binding to cyclic loop 6 peptide (ELISA)” value in assay [8] is recorded as “specifically bind to cyclic loop 6 peptide in a dose-dependent manner”. The “Sensitivity of S. aureus towards nisin” value in the assay on S. aureus SA113 Δspa is reported as “most pronounced effects”.

B4: M-L1: human IgG1 against linear peptide, loop 1 of MprF; VH1A kappa 3; VL Seq. ID: 14, VH Seq. ID: 15 (antibody, V domains shown)
VH: QVQLVQSGAEVKKPGSSVKVSCKASGGTFNSYAIHWVRQAPGQGLEWMGGIIPIFGIANYAQKFQGRVTITADESTSTAYMELSSLRSEDTAVYYCARDQYTYDYYRAFDYWGQGTLVTVSS
VL: DIVLTQSPATLSLSPGERATLSCRASQSVRDNLAWYQQKPGQAPRLLIYGASNRATGIPARFSGSGSGTDFTLTISSLEPEDFAVYYCQQYDHSPRTFGQGTKVEIKRT
modifications: ML1 VH; ML1 VL
notes: human IgG1 against linear peptide, loop 1 of MprF; VH1A kappa 3; ID: 15
Regarding B4, the “Binding to whole cell S. aureus (ELISA)” value in assay [5] is recorded as “detect MprF on S. aureus”. In assay [9], the “Specific binding to linear loop 1 peptide (ELISA)” value was “specifically bind to linear loop 1 peptide in a dose-dependent manner”. For the same molecule, in assay [6], the “Binding to S. aureus mutants lacking MprF expression (ELISA)” value is given as “significantly weaker binding”.
